Results published in PMC6886185.

Target: eIF4A1 (UniProt P60842)
Experiment: fluorescence anisotropy
Conditions: 20 mM Hepes/KOH pH 7.5, 100 (mM) KCl, 1 mM MgCl2, 1 mM AMP-PNP, 1 mM TCEP, 0.1% DMSO, +/-50 uM silvestrol (10 uM in Fig 4a legend), 60 min, 25 C; numeric Kd of …

eIF4A1, sequence (P60842 whole entry): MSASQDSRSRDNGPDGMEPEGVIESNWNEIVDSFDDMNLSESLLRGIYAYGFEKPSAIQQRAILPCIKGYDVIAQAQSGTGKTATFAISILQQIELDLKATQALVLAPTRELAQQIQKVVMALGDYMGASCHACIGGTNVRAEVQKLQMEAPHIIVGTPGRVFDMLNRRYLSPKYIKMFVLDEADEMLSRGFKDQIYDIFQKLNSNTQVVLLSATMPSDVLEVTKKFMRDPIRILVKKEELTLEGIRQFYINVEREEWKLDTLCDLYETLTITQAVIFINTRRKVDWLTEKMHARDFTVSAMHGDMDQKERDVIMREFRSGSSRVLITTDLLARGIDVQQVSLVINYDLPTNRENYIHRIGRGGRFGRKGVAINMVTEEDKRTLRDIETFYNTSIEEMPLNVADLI

## AGAGAGAGAGAGAGAGAGAG [(AG)10 ssRNA]
  Kd: 0.0033 mM
